From US20260049138A1 (Chugai, published 2026)

Experiments:
[1] = molecular target: T1, CD3ε homodimer protein (human, UniProt P07766 23-126, limits assumed); test: SPR
T1 construct: also called CD3 (CD3ε)
T1 sequence (P07766 23-126 limits assumed): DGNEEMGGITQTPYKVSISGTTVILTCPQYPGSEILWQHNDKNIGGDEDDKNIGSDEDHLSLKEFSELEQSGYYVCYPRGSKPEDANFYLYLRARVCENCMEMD
Experimental: Each one-amino acid altered form constructed, expressed, and purified in the paragraph (6-2) was evaluated using Biacore T200 (GE Healthcare Japan Corp.). An appropriate amount of CD3ε homodimer protein was immobilized onto Sensor chip CM4 (GE Healthcare Japan Corp.) by the amine coupling method. Then, the antibody having an appropriate concentration was injected thereto as an analyte and allowed to interact with the CD3ε homodimer protein on the sensor chip. Then, the sensor chip was regenerated by the injection of 10 mmol/L glycine-HCl (pH 1.5). The assay was conducted at 25° C., and HBS-EP+ (GE Healthcare Japan Corp.) was used as a running buffer. […] Each parameter was calculated using Biacore T200 Evaluation Software (GE Healthcare Japan Corp.).
Specifically, when the amount of the GLS3000-containing antibody bound was defined as X and the amount of the L chain one-amino acid altered form bound was defined as Y, a value of Z (ratio of amounts bound)=Y/X was used.

[2] = molecular target: T2, CD3ε homodimer protein (human, UniProt P07766 23-126, limits assumed); test: SPR (Biacore T200), one-arm antibody as analyte over immobilised CD3ε homodimer protein, single-cycle kinetics
T2 construct: also called human CD3ε homodimer protein
T2 sequence (P07766 23-126 limits assumed): as above

| KD ratio to GLS3000 [1] | Kd [2] [nM] | Binder |
| --- | --- | --- |
| 32.7 |  | GLS3000 L33P (antibody, name in Kabat numbering, V domains shown, one-arm, rest as m2) VH: QVQLVESGGGVVQPGRSLRLSCAASGFTFSNAWMHWVRQAPGKGLEWVAQIKAKSNNYATYYAESVKGRFTISRDDSKNSLYLQMNSLKTEDTAVYYCRYVHYGAYYGVDAWGQGTTVTVSS VL: DIVMTQSPLSLPVTPGEPASISCRSSQSLVHSNRNTYPHWYQQKPGQAPRLLIYKVSNRFSGVPDRFSGSGSGTDFTLKISRVEAEDVGVYYCGQGTQVPYTFGQGTKLEIK |
| 0.98 |  | CE115HA000 / GLS3000 one-arm antibody (unaltered) (antibody, human IgG1, kappa, L234A L235A, N297A, All L chain altered forms m3-m332 have this format; for them only VH and VL are written out; also called GLS3000-containing antibody) heavy: QVQLVESGGGVVQPGRSLRLSCAASGFTFSNAWMHWVRQAPGKGLEWVAQIKAKSNNYATYYAESVKGRFTISRDDSKNSLYLQMNSLKTEDTAVYYCRYVHYGAYYGVDAWGQGTTVTVSSASTKGPSVFPLAPSSKSTSGGTAALGCLVKDYFPEPVTVSWNSGALTSGVHTFPAVLQSSGLYSLSSVVTVPSSSLGTQTYICNVNHKPSNTKVDKKVEPKSCDKTHTCPPCPAPEAAGGPSVFLFPPKPKDTLMISRTPEVTCVVVDVSHEDPEVKFNWYVDGVEVHNAKTKPREEQYASTYRVVSVLTVLHQDWLNGKEYKCKVSNKALPAPIEKTISKAKGQPREPQVYTLPPSRCELTKNQVSLSCAVKGFYPSDIAVEWESNGQPENNYKTTPPVLDSDGSFFLVSKLTVDKSRWQQGNVFSCSVMHEALHNHYTQKSLSLSPDYKDDDDK EPKSSDKTHTCPPCPAPELLGGPSVFLFPPKPKDTLMISRTPEVTCVVVDVSHEDPEVKFNWYVDGVEVHNAKTKPREEQYNSTYRVVSVLTVLHQDWLNGKEYKCKVSNKALPAPIEKTISKAKGQPREPQVCTLPPSRDELTKNQVSLWCLVKGFYPSDIAVEWESNGQPENNYKTTPPVLDSDGSFFLYSKLTVDKSRWQQGNVFSCSVMHEALHNRYTQKSLSLSP light: DIVMTQSPLSLPVTPGEPASISCRSSQSLVHSNRNTYLHWYQQKPGQAPRLLIYKVSNRFSGVPDRFSGSGSGTDFTLKISRVEAEDVGVYYCGQGTQVPYTFGQGTKLEIKRTVAAPSVFIFPPSDEQLKSGTASVVCLLNNFYPREAKVQWKVDNALQSGNSQESVTEQDSKDSTYSLSSTLTLSKADYEKHKVYACEVTHQGLSSPVTKSFNRGEC |

More lines, now with the values behind:

| Binder | KD ratio to GLS3000 [1] | Kd [2] [nM] |
| --- | --- | --- |
| One-arm antibody: NNS6f51 (CE115HA340 with GFLVLW inserted between Kabat positions 99 and 100) / Kn010G3 / GLS3000-kappa (antibody) chain 1: QVQLVESGGGLVQPGRSLRLSCAASGFTFSNAWMHWVRQAPGKGLEWVAQIKDKSNNYATYYAESVKGRFTISRDDSKNSIYLQMNSLKTEDTAVYYCRYVHYAAGFLVLWYYGVDAWGQGTTVTVSSASTKGPSVFPLAPSSKSTSGGTAALGCLVKDYFPEPVTVSWNSGALTSGVHTFPAVLQSSGLYSLSSVVTVPSSSLGTQTYICNVNHKPSNTKVDKKVEPKSCDKTHTCPPCPAPEAAGGPSVFLFPPKPKDTLMISRTPEVTCVVVDVSHEDPEVKFNWYVDGVEVHNAKTKPREEQYASTYRVVSVLTVLHQDWLNGKEYKCKVSNKALPAPIEKTISKAKGQPREPQVYTLPPSRCELTKNQVSLSCAVKGFYPSDIAVEWESNGQPENNYKTTPPVLDSDGSFFLVSKLTVDKSRWQQGNVFSCSVMHEALHNHYTQKSLSLSPDYKDDDDK chain 2: EPKSSDKTHTCPPCPAPELLGGPSVFLFPPKPKDTLMISRTPEVTCVVVDVSHEDPEVKFNWYVDGVEVHNAKTKPREEQYNSTYRVVSVLTVLHQDWLNGKEYKCKVSNKALPAPIEKTISKAKGQPREPQVCTLPPSRDELTKNQVSLWCLVKGFYPSDIAVEWESNGQPENNYKTTPPVLDSDGSFFLYSKLTVDKSRWQQGNVFSCSVMHEALHNRYTQKSLSLSP chain 3: DIVMTQSPLSLPVTPGEPASISCRSSQSLVHSNRNTYLHWYQQKPGQAPRLLIYKVSNRFSGVPDRFSGSGSGTDFTLKISRVEAEDVGVYYCGQGTQVPYTFGQGTKLEIKRTVAAPSVFIFPPSDEQLKSGTASVVCLLNNFYPREAKVQWKVDNALQSGNSQESVTEQDSKDSTYSLSSTLTLSKADYEKHKVYACEVTHQGLSSPVTKSFNRGEC |  | 31 |
| One-arm antibody: NNS6f54 (CE115HA340 with FEWVGW inserted between Kabat positions 99 and 100) / Kn010G3 / GLS3000-kappa (antibody) chain 1: QVQLVESGGGLVQPGRSLRLSCAASGFTFSNAWMHWVRQAPGKGLEWVAQIKDKSNNYATYYAESVKGRFTISRDDSKNSIYLQMNSLKTEDTAVYYCRYVHYAAFEWVGWYYGVDAWGQGTTVTVSSASTKGPSVFPLAPSSKSTSGGTAALGCLVKDYFPEPVTVSWNSGALTSGVHTFPAVLQSSGLYSLSSVVTVPSSSLGTQTYICNVNHKPSNTKVDKKVEPKSCDKTHTCPPCPAPEAAGGPSVFLFPPKPKDTLMISRTPEVTCVVVDVSHEDPEVKFNWYVDGVEVHNAKTKPREEQYASTYRVVSVLTVLHQDWLNGKEYKCKVSNKALPAPIEKTISKAKGQPREPQVYTLPPSRCELTKNQVSLSCAVKGFYPSDIAVEWESNGQPENNYKTTPPVLDSDGSFFLVSKLTVDKSRWQQGNVFSCSVMHEALHNHYTQKSLSLSPDYKDDDDK chain 2: EPKSSDKTHTCPPCPAPELLGGPSVFLFPPKPKDTLMISRTPEVTCVVVDVSHEDPEVKFNWYVDGVEVHNAKTKPREEQYNSTYRVVSVLTVLHQDWLNGKEYKCKVSNKALPAPIEKTISKAKGQPREPQVCTLPPSRDELTKNQVSLWCLVKGFYPSDIAVEWESNGQPENNYKTTPPVLDSDGSFFLYSKLTVDKSRWQQGNVFSCSVMHEALHNRYTQKSLSLSP chain 3: DIVMTQSPLSLPVTPGEPASISCRSSQSLVHSNRNTYLHWYQQKPGQAPRLLIYKVSNRFSGVPDRFSGSGSGTDFTLKISRVEAEDVGVYYCGQGTQVPYTFGQGTKLEIKRTVAAPSVFIFPPSDEQLKSGTASVVCLLNNFYPREAKVQWKVDNALQSGNSQESVTEQDSKDSTYSLSSTLTLSKADYEKHKVYACEVTHQGLSSPVTKSFNRGEC |  | 29 |
